Measured values reported in patent US20100260668A1 (published 2010).
Where “and” joins values, the source holds several entries; their conditions need not be identical. Equal entries are not always repeated. One block for each binder: values may come before it.

Experiments:
[1] = molecular target: T1, DLL4 (DLL4 ECD/His tag, R&D Systems 1506-D4-050) (UniProt Q9NR61 27-529); experiment: Direct bind ELISA on DLL4; DLL4 domain C-term., HC short, LC long
T1 construct: extracellular domain; not shown: His tag

[2] = molecular target: T2, IGF-I (UniProt P05019 49-118); experiment: Biacore SPR
T2 construct: Bought reagent; also called IGF1

[3] = molecular target: T3, IGF-2 (UniProt P01344 25-91); experiment: Biacore SPR
T3 construct: Bought reagent

[4] = molecular target: T1, DLL4 (DLL4 ECD/His tag, R&D Systems …); experiment: Direct bind ELISA on DLL4; DLL4 domain C-term., HC long, LC short
[5] = molecular target: T1, DLL4 (DLL4 ECD/His tag, R&D Systems …); experiment: Direct bind ELISA on DLL4; DLL4 domain N-term., HC short, LC long
[6] = molecular target: T4, IGF1R ECD (UniProt P08069 31-935, limits assumed); experiment: Biacore SPR
T4 construct: extracellular domain; Bought reagent

[7] = molecular target: T5, ErbB3 on A431 cells (human, UniProt P21860 20-1342); experiment: cell-based or functional assay
[8] = molecular target: T5, ErbB3 on A431 cells; experiment: cell-based or functional assay; remark: listed apart in the source

B1: DVD484 (VEGF/DLL4 DVD-Ig) (bispecific antibody, human IgG1)
VH: EVQLVESGGGLVQPGGSLRLSCAASGFTISDYWIHWVRQAPGKGLEWVAGITPAGGYTYYADSVKGRFTISADTSKNTAYLQMNSLRAEDTAVYYCARFVFFLPYAMDYWGQGTLVTVSSASTKGPEVQLVESGGGLVQPGGSLRLSCAASGFTFTDNWISWVRQAPGKGLEWVGYISPNSGFTYYADSVKGRFTISADTSKNTAYLQMNSLRAEDTAVYYCARDNFGGYFDYWGQGTLVTVSS
VL: DIQMTQSPSSLSASVGDRVTITCRASQDVSTAVAWYQQKPGKAPKLLIYSASFLYSGVPSRFSGSGSGTDFTLTISSLQPEDFATYYCQQSYTTPPTFGQGTKVEIKRTVAAPSVFIFPPDIQMTQSPSSLSASVGDRVTITCRASQDVSTAVAWYQQKPGKAPKLLIYSASFLYSGVPSRFSGSGSGTDFTLTISSLQPEDFATTYYCQQSYTGTVTFGQGTKVEIKR
notes: HC linker short, LC linker long; also called DVD484H; DVD484L
EC50 [1]: 1750 pM

Kd [2]: 388 pM
koff [2]: 0.00123 s⁻¹
kon [2]: 3.17e+06 M⁻¹ s⁻¹
Kd [3]: 0.423 pM and < 0.299 pM
koff [3]: 2.74e-06 s⁻¹ and < 1e-06 s⁻¹
kon [3]: 6.47e+06 M⁻¹ s⁻¹ and 3.35e+06 M⁻¹ s⁻¹
B2: AB010 (antibody, human IgG1, lambda, V domains shown)
VH: QVQLVQSGAEVKKPGASVKVSCKASGYTFTSYDINWVRQATGQGLEWMGWMNPNSGNTGYAQKFQGRVTMTRNTSISTAYMELSSLRSEDTAVYYCARDPYYYYYGMDVWGQGTTVTVSS
VL: QSVLTQPPSVSAAPGQKVTISCSGSSSNIENNHVSWYQQLPGTAPKLLIYDNNKRPSGIPDRFSGSKSGTSATLGITGLQTGDEADYYCETWDTSLSAGRVFGGGTKLTVLG
notes: also called anti-IGF1,2 parent antibody

EC50 [4]: 3170 pM
B3: DVD502 (VEGF/DLL4 DVD-Ig) (bispecific antibody, human IgG1)
VH: EVQLVESGGGLVQPGGSLRLSCAASGFTISDYWIHWVRQAPGKGLEWVAGITPAGGYTYYADSVKGRFTISADTSKNTAYLQMNSLRAEDTAVYYCARFVFFLPYAMDYWGQGTLVTVSSASTKGPSVFPLAPEVQLQQSGPELVKPGASVKMSCKASGYTFTSYVINWVKQKPGQGLEWIGLINPYNDGTKYNEKFKVKATLTSDKSSSTAYMELSSLTSEDSAVYYCASYYYGSRYYFDYWGQGTTLTVSS
VL: DIQMTQSPSSLSASVGDRVTITCRASQDVSTAVAWYQQKPGKAPKLLIYSASFLYSGVPSRFSGSGSGTDFTLTISSLQPEDFATYYCQQSYTTPPTFGQGTKVEIKRTVAAPDIQMTQSSSYLSVSLGGRVTITCKASDHINNWLAWYQQKPGNAPRLLISGATSLETGVPSRFSGSGSGKDYTLSITSLQTEDVATYYCQQYWSIPLTFGAGTKLELKR
notes: HC linker long, LC linker short; also called DVD502H; DVD502L

B4: DVD461 (DLL4/VEGF DVD-Ig) (bispecific antibody, human IgG1)
VH: QVQLVQSGAEVKKPGASVKISCKASGYSFTAYYIHWVKQAPGQGLEWIGYISSYNGATNYNQKFKGRVTFTTDTSTSTAYMELRSLRSDDTAVYYCARDYDYDVGMDYWGQGTLVTVSSASTKGPEVQLVESGGGLVQPGGSLRLSCAASGFTISDYWIHWVRQAPGKGLEWVAGITPAGGYTYYADSVKGRFTISADTSKNTAYLQMNSLRAEDTAVYYCARFVFFLPYAMDYWGQGTLVTVSS
VL: DIVMTQSPDSLAVSLGERATISCRASESVDNYGISFMKWFQQKPGQPPKLLIYAASNQGSGVPDRFSGSGSGTDFTLTISSLQAEDVAVYYCQQSKEVPWTFGGGTKVEIKRTVAAPSVFIFPPDIQMTQSPSSLSASVGDRVTITCRASQDVSTAVAWYQQKPGKAPKLLIYSASFLYSGVPSRFSGSGSGTDFTLTISSLQPEDFATYYCQQSYTTPPTFGQGTKVEIKR
notes: HC linker short, LC linker long; also called DVD461H; DVD461L
EC50 [5]: 520 pM

B5: DVD532 (VEGF/DLL4 DVD-Ig) (bispecific antibody, human IgG1)
VH: EVQLVESGGGLVQPGGSLRLSCAASGFTISDYWIHWVRQAPGKGLEWVAGITPAGGYTYYADSVKGRFTISADTSKNTAYLQMNSLRAEDTAVYYCARFVFFLPYAMDYWGQGTLVTVSSASTKGPEVQLQQSGPELEKPGASVKISCKASGYSFTGYNMNWVKQSNGKSLEWIGNIDPYFGGTNYNQKFKGKATLTVDKSSSTAYMQLKSLTSEDSAVYYCARNYDYDGGCFDYWGQGTTLTVSS
VL: DIQMTQSPSSLSASVGDRVTITCRASQDVSTAVAWYQQKPGKAPKLLIYSASFLYSGVPSRFSGSGSGTDFTLTISSLQPEDFATYYCQQSYTTPPTFGQGTKVEIKRTVAAPSVFIFPPQAVVTQESALTTSPGETVTLTCRSSTGAVTTSNYANWVQEKPDHLFTGLIGGTNNRAPGVPARFSGSLIGDKAALTITGAQTEDEAIYFCALWYSNHWVFGGGTKLTVLG
notes: HC linker short, LC linker long; also called DVD532H; DVD532L
EC50 [1]: 1430 pM

B6: DVD531 (DLL4/VEGF DVD-Ig) (bispecific antibody, human IgG1)
VH: EVQLQQSGPELEKPGASVKISCKASGYSFTGYNMNWVKQSNGKSLEWIGNIDPYFGGTNYNQKFKGKATLTVDKSSSTAYMQLKSLTSEDSAVYYCARNYDYDGGCFDYWGQGTTLTVSSASTKGPEVQLVESGGGLVQPGGSLRLSCAASGFTISDYWIHWVRQAPGKGLEWVAGITPAGGYTYYADSVKGRFTISADTSKNTAYLQMNSLRAEDTAVYYCARFVFFLPYAMDYWGQGTLVTVSS
VL: QAVVTQESALTTSPGETVTLTCRSSTGAVTTSNYANWVQEKPDHLFTGLIGGTNNRAPGVPARFSGSLIGDKAALTITGAQTEDEAIYFCALWYSNHWVFGGGTKLTVLGQPKAAPSVTLFPPDIQMTQSPSSLSASVGDRVTITCRASQDVSTAVAWYQQKPGKAPKLLIYSASFLYSGVPSRFSGSGSGTDFTLTISSLQPEDFATYYCQQSYTTPPTFGQGTKVEIKR
notes: HC linker short, LC linker long; also called DVD531H; DVD531L
EC50 [5]: 570 pM

Kd [6]: 848 pM
koff [6]: 6.21e-05 s⁻¹
kon [6]: 73200 M⁻¹ s⁻¹
B7: AB011 (antibody, human IgG1, kappa, V domains shown)
VH: EVQLLESGGGLVQPGGSLRLSCTASGFTFSSYAMNWVRQAPGKGLEWVSAISGSGGTTFYADSVKGRFTISRDNSRTTLYLQMNSLRAEDTAVYYCAKDLGWSDSYYYYYGMDVWGQGTTVTVSS
VL: DIQMTQFPSSLSASVGDRVTITCRASQGIRNDLGWYQQKPGKAPKRLIYAASRLHRGVPSRFSGSGSGTEFTLTISSLQPEDFATYYCLQHNSYPCSFGQGTKLEIKR

B8: DVD483 (DLL4/VEGF DVD-Ig) (bispecific antibody, human IgG1)
VH: EVQLVESGGGLVQPGGSLRLSCAASGFTFTDNWISWVRQAPGKGLEWVGYISPNSGFTYYADSVKGRFTISADTSKNTAYLQMNSLRAEDTAVYYCARDNFGGYFDYWGQGTLVTVSSASTKGPEVQLVESGGGLVQPGGSLRLSCAASGFTISDYWIHWVRQAPGKGLEWVAGITPAGGYTYYADSVKGRFTISADTSKNTAYLQMNSLRAEDTAVYYCARFVFFLPYAMDYWGQGTLVTVSS
VL: DIQMTQSPSSLSASVGDRVTITCRASQDVSTAVAWYQQKPGKAPKLLIYSASFLYSGVPSRFSGSGSGTDFTLTISSLQPEDFATTYYCQQSYTGTVTFGQGTKVEIKRTVAAPSVFIFPPDIQMTQSPSSLSASVGDRVTITCRASQDVSTAVAWYQQKPGKAPKLLIYSASFLYSGVPSRFSGSGSGTDFTLTISSLQPEDFATYYCQQSYTTPPTFGQGTKVEIKR
notes: HC linker short, LC linker long; also called DVD483H; DVD483L
EC50 [5]: 630 pM

B9: DVD507 (DLL4/VEGF DVD-Ig) (bispecific antibody, human IgG1)
VH: EVQLQQSGPELVKPGASVKMSCKASGYTFTSYVINWVKQKPGQGLEWIGLINPYNDGTKYNEKFKVKATLTSDKSSSTAYMELSSLTSEDSAVYYCASYYYGSRYYFDYWGQGTTLTVSSASTKGPEVQLVESGGGLVQPGGSLRLSCAASGFTISDYWIHWVRQAPGKGLEWVAGITPAGGYTYYADSVKGRFTISADTSKNTAYLQMNSLRAEDTAVYYCARFVFFLPYAMDYWGQGTLVTVSS
VL: DIQMTQSSSYLSVSLGGRVTITCKASDHINNWLAWYQQKPGNAPRLLISGATSLETGVPSRFSGSGSGKDYTLSITSLQTEDVATYYCQQYWSIPLTFGAGTKLELKRTVAAPSVFIFPPDIQMTQSPSSLSASVGDRVTITCRASQDVSTAVAWYQQKPGKAPKLLIYSASFLYSGVPSRFSGSGSGTDFTLTISSLQPEDFATYYCQQSYTTPPTFGQGTKVEIKR
notes: HC linker short, LC linker long; also called DVD507H; DVD507L
EC50 [5]: 710 pM

Inhibition Of EGFR Phosphorylation (% Inhibition At 60 nM Ab/DVD) [7]: 0%
Inhibition Of ErbB3 Phosphorylation (% Inhibition At 60 nM Ab/DVD) [7]: 72%
Inhibition Of A431 Proliferation (% Inhibition At 2.4 nM Ab/DVD) [8]: 14%
Inhibition Of A431 Proliferation (% Inhibition At 21.6 nM Ab/DVD) [8]: 27%
B10: AB062 (anti-ErbB3 (seq. 1) parent antibody) (antibody, human IgG1, kappa, V domains shown)
VH: QVQLQQWGAGLLKPSETLSLTCAVYGGSFSGYYWSWIRQPPGKGLEWIGEINHSGSTNYNPSLKSRVTISVETSKNQFSLKLSSVTAADTAVYYCARDKWTWYFDLWGRGTLVTVSS
VL: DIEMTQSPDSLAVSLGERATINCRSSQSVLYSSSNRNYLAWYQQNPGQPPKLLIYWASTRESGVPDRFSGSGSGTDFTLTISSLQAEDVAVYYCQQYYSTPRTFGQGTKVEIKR

B11: DVD462 (VEGF/DLL4 DVD-Ig) (bispecific antibody, human IgG1)
VH: EVQLVESGGGLVQPGGSLRLSCAASGFTISDYWIHWVRQAPGKGLEWVAGITPAGGYTYYADSVKGRFTISADTSKNTAYLQMNSLRAEDTAVYYCARFVFFLPYAMDYWGQGTLVTVSSASTKGPQVQLVQSGAEVKKPGASVKISCKASGYSFTAYYIHWVKQAPGQGLEWIGYISSYNGATNYNQKFKGRVTFTTDTSTSTAYMELRSLRSDDTAVYYCARDYDYDVGMDYWGQGTLVTVSS
VL: DIQMTQSPSSLSASVGDRVTITCRASQDVSTAVAWYQQKPGKAPKLLIYSASFLYSGVPSRFSGSGSGTDFTLTISSLQPEDFATYYCQQSYTTPPTFGQGTKVEIKRTVAAPSVFIFPPDIVMTQSPDSLAVSLGERATISCRASESVDNYGISFMKWFQQKPGQPPKLLIYAASNQGSGVPDRFSGSGSGTDFTLTISSLQAEDVAVYYCQQSKEVPWTFGGGTKVEIKR
notes: HC linker short, LC linker long; also called DVD462H; DVD462L
EC50 [1]: 7990 pM

B12: DVD508 (VEGF/DLL4 DVD-Ig) (bispecific antibody, human IgG1)
VH: EVQLVESGGGLVQPGGSLRLSCAASGFTISDYWIHWVRQAPGKGLEWVAGITPAGGYTYYADSVKGRFTISADTSKNTAYLQMNSLRAEDTAVYYCARFVFFLPYAMDYWGQGTLVTVSSASTKGPEVQLQQSGPELVKPGASVKMSCKASGYTFTSYVINWVKQKPGQGLEWIGLINPYNDGTKYNEKFKVKATLTSDKSSSTAYMELSSLTSEDSAVYYCASYYYGSRYYFDYWGQGTTLTVSS
VL: DIQMTQSPSSLSASVGDRVTITCRASQDVSTAVAWYQQKPGKAPKLLIYSASFLYSGVPSRFSGSGSGTDFTLTISSLQPEDFATYYCQQSYTTPPTFGQGTKVEIKRTVAAPSVFIFPPDIQMTQSSSYLSVSLGGRVTITCKASDHINNWLAWYQQKPGNAPRLLISGATSLETGVPSRFSGSGSGKDYTLSITSLQTEDVATYYCQQYWSIPLTFGAGTKLELKR
notes: HC linker short, LC linker long; also called DVD508H; DVD508L
EC50 [1]: 610 pM
